Like-named read-outs stand apart in the source and are kept apart here.
Columns and labels:
[1] = target: human MHC class II β chain (human)
[2] = target: human MHC class II β chain (human); remark: listed apart in the source

Row | Substance | Plaques/10^6 PBMC (anti-SRBC antibody formation, hemolytic plaque assay) (Plaques/10^6 PBMC) [1] | Plaques/10^6 PBMC (anti-SRBC antibody formation, hemolytic plaque assay) (Plaques/10^6 PBMC) [2]
1 | IL-4 receptor/Fc fusion protein | 788 | –
2 | Tie/Fc (Fc fusion) | – | 606
3 | BZLF2/Fc fusion protein | 0 | –
